# According to patent US20260242478A1 (published 2026):
# Where no end group is shown, it is not given here.
# B1: Phage-3343 (peptide)
# peptide: TAPMCKPEWMCVAL
# modifications: cysteine pairing not given here; also: fused to pIII of bacteriophage
# notes: not shown: fused to pIII of the bacteriophage
# B2: Phage-3345 (peptide)
# peptide: GELKCIPPWMCEGF
# modifications: cysteine pairing not given here; also: fused to pIII of bacteriophage
# notes: as for B1
# B3: Phage-3346 (peptide)
# peptide: SEYRCVPNWMCSGF
# modifications: cysteine pairing not given here; also: fused to pIII of bacteriophage
# notes: as for B1
# B4: Phage-3338 (peptide)
# peptide: VDALCRPSWMCIGF
# modifications: cysteine pairing not given here; also: fused to pIII of bacteriophage
# notes: as for B1
# B5: Phage-3347 (peptide)
# peptide: QSPMCKPDWMCLGF
# modifications: cysteine pairing not given here; also: fused to pIII of bacteriophage
# notes: as for B1
# B6: Phage-3340 (peptide)
# peptide: MHFHCKPAWMCQGL
# modifications: cysteine pairing not given here; also: fused to pIII of bacteriophage
# notes: as for B1
# B7: Phage-3349 (peptide)
# peptide: HIKECTPRWMCVGF
# modifications: cysteine pairing not given here; also: fused to pIII of bacteriophage
# notes: as for B1
# B8: Phage-3344 (peptide)
# peptide: MERLCMPSWMCGGF
# modifications: cysteine pairing not given here; also: fused to pIII of bacteriophage
# notes: as for B1
# B9: Phage-3342 (peptide)
# peptide: MEPVCKPKWMCQGF
# modifications: cysteine pairing not given here; also: fused to pIII of bacteriophage
# notes: as for B1
# B10: Phage-3341 (peptide)
# peptide: QYPVCKPAWMCEGF
# modifications: cysteine pairing not given here; also: fused to pIII of bacteriophage
# notes: as for B1
# B11: Phage-3336 (peptide)
# peptide: IVDICKPSWMCEGF
# modifications: cysteine pairing not given here; also: fused to pIII of bacteriophage
# notes: as for B1
# B12: Phage-3337 (peptide)
# peptide: LEVLCKPTWMCVGF
# modifications: cysteine pairing not given here; also: fused to pIII of bacteriophage
# notes: as for B1
# B13: Phage-3339 (peptide)
# peptide: TASMCKPPWMCLGF
# modifications: cysteine pairing not given here; also: fused to pIII of bacteriophage
# notes: as for B1
# B14: Phage-3348 (peptide)
# peptide: YEQRCVPVWMCEGF
# notes: as for B1
# B15: Phage-3325 (peptide)
# peptide: MYIHCVPEWMCRGF
# B16: Phage-3329 (peptide)
# peptide: VDRLCSPAWMCLGF
# B17: Phage-3334 (peptide)
# peptide: IDRMCKPVWMCEGF
# B18: Phage-3330 (peptide)
# peptide: MEAMCRPAWMCAGF
# modifications: cysteine pairing not given here; also: fused to pIII of bacteriophage
# B19: Phage-3326 (peptide)
# peptide: QVVMCTPEWMCSGF
# B20: Phage-3332 (peptide)
# peptide: PELWCVPSWMCEGF
# B21: Phage-3333 (peptide)
# peptide: IEFLCKPMWMCNGF
# B22: Phage-3335 (peptide)
# peptide: EGRYCVPEWMCQGF
# B23: Phage-3324 (peptide)
# peptide: VGPRCVPEWMCIGL
# B24: Phage-3322 (peptide)
# peptide: IMPKCVPSWMCTGL
# B25: Phage-3327 (peptide)
# peptide: IGVVCKPLWMCHGF
# B26: Phage-3323 (peptide)
# peptide: AGSMCTPMWMCTGF
# B27: Phage-3331 (peptide)
# peptide: VNELCIPSWMCNGF
# B28: Phage-3328 (peptide)
# peptide: VAPICRPSWMCEWL
# B29: Phage-3352 (Peptide-180 library peptide) (peptide)
# peptide: VDHVCRPIWMCIGF
# notes: tested as crude clonal phage supernatant
# B30: Phage-3350 (Peptide-180 library peptide) (peptide)
# peptide: GDIRCVPEWMCSGL
# modifications: cysteine pairing not given here; also: fused to pIII of bacteriophage
# notes: as for B29
# B31: Phage-3351 (Peptide-180 library peptide) (peptide)
# peptide: VRPMCEPVWMCMGF
# notes: as for B29
# Molecular target: T1, PSMA Fab (006 PSMA Fab) (biotinylated (site not stated))
# T1 construct: also called Anti-PSMA Fab; anti-PSMA Fab
# Assay: clonal phage ELISA on captured PSMA Fab, wells pre-incubated with PSMA antigen as competitor
# Description: (§1) Clonal phage were harvested as crude supernatants and screened via standard ELISAs. […] Prior to the addition of clonal phage. wells were incubated with blocking buffer and PSMA antigen or blocking buffer alone. Without washing or aspirating, clonal phage supernatants were then added to the wells and incubated for a short time. Wells were then washed followed by detection of bound phage using a horse radish conjugated anti-M13 antibody.
row,Binder,phage binding ELISA signal (Anti-PSMA Fab with PSMA)
1,B1,0.0952
2,B2,0.0808
3,B3,0.0791
4,B4,0.0688
5,B5,0.0728
6,B6,0.0998
7,B7,0.078
8,B8,0.0822
9,B9,0.07
10,B10,0.0971
11,B11,0.0649
12,B12,0.078
13,B13,0.0684
14,B14,0.0675

# Molecular target: T2, PSMA Fab (biotinylated (site not stated))
# T2 construct: Biotinylated PSMA Fab captured on neutravidin coated plates in the phage ELISA; also called Anti-PSMA Fab; 006 PSMA Fab
# Assay: clonal phage ELISA on biotinylated PSMA Fab captured on neutravidin plates, blocking buffer alone; anti-M13 HRP detection
row,Binder,phage binding ELISA signal
1,B15,1.85
2,B16,1.84
3,B17,1.84
4,B18,1.84
5,B19,1.85
6,B20,1.84
7,B21,1.84
8,B22,1.84
9,B23,1.85
10,B24,1.85
11,B25,1.85
12,B26,1.85
13,B27,1.84
14,B28,1.84

# Molecular target: T3, PSMA Fab (006 PSMA Fab)
# T3 construct: also called Anti-PSMA Fab
# Assay: phage ELISA: clonal phage supernatant on biotinylated PSMA Fab captured on neutravidin plate, blocking buffer alone; anti-M13 HRP detection;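 also: crude clonal phage supernatants added to wells preincubated with blocking buffer, incubated briefly, bound phage detected with a horseradish-conjugated anti-M13 antibody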
# Description: as §1
row,Binder,phage binding ELISA signal
1,B29,1.82
2,B30,1.82
3,B31,1.82

# Molecular target: T2, PSMA Fab
# Assay: clonal phage ELISA on captured PSMA Fab, wells pre-incubated with PSMA antigen as competitor; anti-M13 HRP detection
# Description: as §1
row,Binder,phage binding ELISA signal
1,B15,0.0941
2,B16,0.0785
3,B17,0.123
4,B18,0.0662
5,B19,0.0905
6,B20,0.0867
7,B21,0.0658
8,B22,0.0864
9,B23,0.0954
10,B24,0.153
11,B25,0.0971
12,B26,0.0744
13,B27,0.0845
14,B28,0.0837

# Molecular target: T3, PSMA Fab (006 PSMA Fab)
# Assay: phage ELISA: clonal phage supernatant on biotinylated PSMA Fab captured on neutravidin plate, wells pre-incubated with PSMA antigen as competitor; anti-M13 HRP detection
# Description: as §1
row,Binder,phage binding ELISA signal
1,B29,0.0934
2,B30,0.0749
3,B31,0.0972

# Molecular target: T1, PSMA Fab (006 PSMA Fab)
# Assay: clonal phage ELISA on biotinylated PSMA Fab captured on neutravidin, anti-M13-HRP detection;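 also: crude clonal phage supernatants added to wells preincubated with PSMA antigen in blocking buffer or with blocking buffer alone, brief binding period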
# Description: as §1
row,Binder,"Phage binding ELISA signal, Anti-PSMA Fab"
1,B1,1.83
2,B2,1.83
3,B3,1.83
4,B4,1.84
5,B5,1.83
6,B6,1.83
7,B7,1.82
8,B8,1.83
9,B9,1.83
10,B10,1.83
11,B11,1.84
12,B12,1.84
13,B13,1.83
14,B14,1.82
